From publication PMC12335590

Target: mouse platelet glycoprotein Ibα (mouse (endogenous in platelets)) (UniProt O35930)
Sequence of UniProt O35930 (O35930 17-734): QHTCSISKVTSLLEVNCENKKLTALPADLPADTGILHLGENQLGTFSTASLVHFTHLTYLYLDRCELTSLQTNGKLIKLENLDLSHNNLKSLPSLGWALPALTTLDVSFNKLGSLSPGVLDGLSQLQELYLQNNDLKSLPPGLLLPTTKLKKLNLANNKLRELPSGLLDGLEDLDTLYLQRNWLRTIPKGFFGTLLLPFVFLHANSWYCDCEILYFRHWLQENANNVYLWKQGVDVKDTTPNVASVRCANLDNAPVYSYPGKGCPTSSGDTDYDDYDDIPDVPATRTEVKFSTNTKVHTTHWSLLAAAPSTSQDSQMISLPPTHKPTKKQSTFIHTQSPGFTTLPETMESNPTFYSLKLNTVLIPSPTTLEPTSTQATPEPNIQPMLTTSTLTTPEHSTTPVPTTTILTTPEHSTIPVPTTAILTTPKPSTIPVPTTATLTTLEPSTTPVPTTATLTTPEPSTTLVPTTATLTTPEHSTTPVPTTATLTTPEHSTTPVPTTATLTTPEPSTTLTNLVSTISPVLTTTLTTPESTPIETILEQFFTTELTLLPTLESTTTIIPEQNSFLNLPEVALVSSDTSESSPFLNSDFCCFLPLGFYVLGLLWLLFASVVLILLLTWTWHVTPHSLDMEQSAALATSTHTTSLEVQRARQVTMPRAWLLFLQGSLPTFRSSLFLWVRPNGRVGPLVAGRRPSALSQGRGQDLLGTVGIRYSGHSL

- translocation (rolling) velocity of Mical1+/+ platelets on immobilised recombinant mouse VWF at 1500 s-1 after αIIbβ3 blockade: 1.41 μm/s
Substance: recombinant mouse von Willebrand factor, Q8CIZ8 764-2813
